Data from doi:10.1101/2025.08.04.668577.

How the values were obtained:
[1] = target: E2 ectodomain of HCV strain 1a116 (hepatitis C virus (genotype 1a, strain 1a116))
[2] = target: E2 ectodomain of HCV strain 1a142 (hepatitis C virus (genotype 1a, strain 1a142)); experiment: ELISA

B1: HEPC108 IgG (antibody, V domains shown)
VH: QVQLVQSGAEVKKPGSSVKVSCKASGDTFSSSAISWVRQAPGQGLEWMGGSIPIFGATKYAQKFQGRVTITTDKSTSTAYMELSSLRFEDTAVYYCARASIVNISGFVRFRFDSWGQGTLVTVSS
VL: DIQMTQSPSSLSASVGDRVTITCQASQDISNYLNWYQQKPGKAPKLLIYDVSNLEIGVPSRFSGSGSGTEFTLTINSLQPEDLATYFCQHYDDVPPVYTFGQGTSLEIK
**Q.** How did the HCVpp neutralization IC50 (1a116 HCVpp, Huh7 cells) [1] turn out when B1 was run?
**A.** 0.12 µg/mL

**Q.** And the fold weaker binding than HEPC74 and AR3C (ELISA) [2]?
**A.** 1.5 fold
